Here are results for two substances from publication PMC13354579.

Assay [1] has as its target K48-linked triubiquitin (UniProt P0CG48). Briefly: ITC; MicroCal PEAQ-ITC, 25 °C, 50 mM Tris-HCl pH 7.5, 150 mM NaCl, 250 µM TCEP; DUB in the syringe titrated into K48-linked polyUb in the cell, in other experiments the scarcest species in the cell; n = 2, mean ± SD.
Assay [2] addresses full-length MINDY3 (human) (UniProt Q9H8M7). The description is as above.

Sequence of full-length MINDY3 (human) (Q9H8M7 whole entry): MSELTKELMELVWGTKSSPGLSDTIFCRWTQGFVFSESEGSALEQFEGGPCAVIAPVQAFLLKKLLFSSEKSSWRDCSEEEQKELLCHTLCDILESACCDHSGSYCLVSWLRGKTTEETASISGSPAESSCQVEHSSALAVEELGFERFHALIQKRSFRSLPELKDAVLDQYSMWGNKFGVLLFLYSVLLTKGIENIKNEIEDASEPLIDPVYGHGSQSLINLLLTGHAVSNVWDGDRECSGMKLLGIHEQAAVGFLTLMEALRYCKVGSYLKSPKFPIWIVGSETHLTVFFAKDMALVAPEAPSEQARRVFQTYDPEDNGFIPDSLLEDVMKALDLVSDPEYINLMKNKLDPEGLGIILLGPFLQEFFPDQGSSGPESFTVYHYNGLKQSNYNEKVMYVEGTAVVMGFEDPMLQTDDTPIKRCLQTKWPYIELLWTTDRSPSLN

By Kd is commonly meant the free concentration of one partner at which half of the binding sites on the other are occupied at equilibrium, for simple one-to-one binding. As for “MINDY3^EF-hand (from UniProt Q9H8M7 297-370) (domain or fragment)”, the Kd in assay [1] is 6 µM.

As for “full-length RAD23A (from UniProt P54725 1-363) (natural protein)”, in assay [2], the Kd was found to be 12.2 µM and the dH was -1.16 kcal/mol.
